Measured values published in publication PMC12802937.

What was measured:
[1] = target: Lge1-CT (Lge1 residues 261–332), intein-chitin binding domain (CBD) tag construct (budding yeast) (UniProt Q02796); test: SPR; Lge1-CT immobilised on a CM5 chip, Bre1-LR flown over; Biacore 8K, 25°C, 20 mM HEPES (pH 7.5), 200 mM sodium chloride, 0.02% Tween 20
[2] = target: Lge1-CT D287K (budding yeast) (UniProt Q02796); test: as above
[3] = target: Lge1-CT D312K (budding yeast) (UniProt Q02796); test: as above
[4] = target: Lge1-CT E278K/E282K (budding yeast) (UniProt Q02796); test: as above
[5] = target: Bre1-LR I397K (budding yeast) (UniProt Q07457); test: ITC; Lge1-CT (50–60 μM) injected into Bre1-LR (15 μM); 25°C, 20 mM TRIS (pH 7.5), 200 mM sodium chloride
[6] = target: Bre1-LR K506E/K510E (budding yeast) (UniProt Q07457); test: as above
[7] = target: Bre1-LR K506E/K510E (budding yeast) (UniProt Q07457); test: ITC; Lge1-CT (50–60 μM) injected into Bre1-LR (15 μM); 25°C, 20 mM TRIS (pH 7.5), 300 mM sodium chloride

Bre1-LR D389K/D390K (from UniProt Q07457 227-700) (domain or fragment)
Kd [1]: 75.5 nM

Bre1-LR (Bre1 residues 227–700, LBD and RING domains), 6× histidine tag (from UniProt Q07457 227-700) (domain or fragment)
Kd [2]: 145 nM | Kd [3]: 25.3 nM | Kd [4]: 95.6 nM

Lge1-CT (Lge1 residues 261–332), intein-chitin binding domain (CBD) tag construct (from UniProt Q02796 261-332) (domain or fragment)
Kd [5]: 122 nM | dH [5]: -41.3 kcal/mol | stoichiometry N [5]: 0.18 | Kd [6]: 41.9 nM | dH [6]: -35.2 kcal/mol | stoichiometry N [6]: 0.383 | Kd [7]: 6720 nM | dH [7]: -80 kcal/mol | stoichiometry N [7]: 0.474

Bre1-LR I397K (from UniProt Q07457 227-700) (domain or fragment)
Kd [1]: 40.7 nM
